Results reported in article doi:10.1101/2025.06.24.661325, “Structural and functional analysis of the Mycobacterium tuberculosis MmpS5L5 efflux pump presages a pathway to increased bedaquiline resistance” (bioRxiv, 2025).

Experiments:
[1] = biological target: T1, M. tuberculosis MmpL5 Δ494-688 with C-terminal GFP-FLAG tag (M. tuberculosis, UniProt P9WJV1 1-964, Δ494-688); assay: co-purification (anti-FLAG affinity, then SEC); conditions: partners not purified
T1 construct: also called MmpL5ΔCC; MmpL5 ΔCC

[2] = biological target: T1, M. tuberculosis MmpL5 Δ494-688 with …; assay: cryo-EM structure; conditions: both partners purified

Binder	binding result [1]	binding result [2]
M. tuberculosis MmpS5 (natural protein) MIGTLKRAWIPLLILVVVAIAGFTVQRIRTFFGSEGILVTPKVFADDPEPFDPKVVEYEVSGSGSYVNINYLDLDAKPQRIDGAALPWSLTLKTTAPSAAPNILAQGDGTSITCRITVDGEVKDERTATGVDALTYCFVKSA	binds	
M. smegmatis acyl carrier protein AcpM (MSMEG_4326) (natural protein) MAATQEEIIAGLAEIIEEVTGIEPSEVTPEKSFVDDLDIDSLSMVEIAVQTEDKYGVKIPDEDLAGLRTVGDVVAYIQKLEEENPEAAAALREKFAADQ		binds
